The target of this experiment is Zika virus envelope (E) glycoprotein, strain H/PF/2013 (French Polynesia), on mature infectious virions (Zika virus strain H/PF/2013, French Polynesia). Kind of experiment: cryo-EM structure; mature ZIKV H/PF/2013 particles incubated with ZIKV-117 Fab at 4 °C for 2–3 h, flash-frozen on lacey carbon grids; icosahedral reconstruction at 6.2 Å; E dimer (PDB 5IRE) and Fab domains (ZV-67, PDB 5KVG) fitted; occupancies by EMfit.

B1: ZIKV-117 Fab (Fab fragment of the human monoclonal antibody ZIKV-117) (Fab, V domains shown)
VH: QVQLVESGGGVVRPGGSLRLSCAASGFTFKNYGIHWVRQAPGKGPEWVAFVRYDGNNKYYADSVKGRFTISRDNAKNTLSLQMNSLRVEDTAVYFCARDPETFGGFDYWGQGTLVTVSS
VL: ETVMTQSPATLSVSPGERGTLSCRASESVSSNLAWYQQKPGKAPRLLIYGASTRATGIPDRFSGSGSGTEFTLTISSLQSEDFAVYYCQQYYYSPRTFGQGTKVEVK
For B1, the Fabs bound per virion at saturation (Fabs per virion (180 sites)) is 60, the Fabs per virion at the 2f sites (Fabs per virion) is 21, the Fabs per virion at the 3f sites (Fabs per virion) stood at 35 and the occupancy at the 2f site (average Fab density relative to E protein density) was determined as 35%. This molecule also returned an occupancy at the 3f site (average Fab density relative to E protein density) of 58%.
